According to paper doi:10.1101/2024.11.17.623997:
Where two headings read alike, the source gives them in different places. One block for each molecule: values may come before it.

What was measured:
[1] = target: AcrVIB1-His (R. anatipestifer); assay: MST
[2] = target: AcrVIB1 (R. anatipestifer); assay: SEC-MALS
[3] = target: AcrVIB1 (R. anatipestifer); assay: other fluorescence titration
PbuCas13b [4] = target: T1, PbuCas13b (UniProt E6K398 1-1127); assay: MST
T1 sequence: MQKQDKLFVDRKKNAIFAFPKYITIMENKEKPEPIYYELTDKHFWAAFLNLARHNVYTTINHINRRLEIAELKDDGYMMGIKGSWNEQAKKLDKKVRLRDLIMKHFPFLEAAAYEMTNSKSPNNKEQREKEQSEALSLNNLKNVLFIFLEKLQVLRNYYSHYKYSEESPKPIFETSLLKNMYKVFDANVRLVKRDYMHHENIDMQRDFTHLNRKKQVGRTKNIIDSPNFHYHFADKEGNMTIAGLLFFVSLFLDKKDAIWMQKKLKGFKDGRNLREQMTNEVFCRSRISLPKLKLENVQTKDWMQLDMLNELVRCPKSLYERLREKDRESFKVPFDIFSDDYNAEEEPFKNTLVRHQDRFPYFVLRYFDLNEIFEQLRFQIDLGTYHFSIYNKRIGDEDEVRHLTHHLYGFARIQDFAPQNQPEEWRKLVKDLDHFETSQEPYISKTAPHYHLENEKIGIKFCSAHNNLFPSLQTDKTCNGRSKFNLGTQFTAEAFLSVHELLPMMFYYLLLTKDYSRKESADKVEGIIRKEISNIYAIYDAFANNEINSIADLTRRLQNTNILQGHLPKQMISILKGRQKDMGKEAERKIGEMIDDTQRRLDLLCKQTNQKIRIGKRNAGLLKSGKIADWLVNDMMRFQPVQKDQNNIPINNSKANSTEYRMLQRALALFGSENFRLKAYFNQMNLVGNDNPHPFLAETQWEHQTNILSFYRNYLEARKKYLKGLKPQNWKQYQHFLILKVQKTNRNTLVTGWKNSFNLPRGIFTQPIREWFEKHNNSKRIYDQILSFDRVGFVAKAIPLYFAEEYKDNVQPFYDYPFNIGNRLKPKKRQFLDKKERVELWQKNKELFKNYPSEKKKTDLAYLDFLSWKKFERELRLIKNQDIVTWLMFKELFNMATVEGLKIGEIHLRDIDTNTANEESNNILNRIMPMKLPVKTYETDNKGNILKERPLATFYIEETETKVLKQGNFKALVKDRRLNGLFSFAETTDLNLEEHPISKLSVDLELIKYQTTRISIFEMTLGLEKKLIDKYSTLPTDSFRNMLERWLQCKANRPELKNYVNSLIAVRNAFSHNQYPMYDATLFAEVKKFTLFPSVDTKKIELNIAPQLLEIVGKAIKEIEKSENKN

PbuCas13b [5] = target: T1, PbuCas13b; assay: MST; remark: listed apart in the source

B1: crRNA-1 processed (KW-RNA-002) (structured_RNA)
RNA: CGUCGCCGUCCAGCUCGACCAGGAUGGGAAGUUGCAUCUGCCUUCUUUUUGAAAGGUAAAAACAAC
- Kd (PbuCas13b [4]): ~1000 nM

B2: crRNA-1 processed / target RNA 1 (KW-RNA-005) (mixed)
RNA 1: CGUCGCCGUCCAGCUCGACCAGGAUGGGAAGUUGCAUCUGCCUUCUUUUUGAAAGGUAAAAACAAC
RNA 2: ACUGGCGUUGUUCCCAUCCUGGUCGAGCUGGACGGCGACGUAAACGGCCA
- Kd (PbuCas13b [5]): 85 nM

Further lines, results first:

- Kd [1]: 44 nM
Molecule: PbuCas13b (enzyme)

- stoichiometry N [2]: 1
- Kd [3]: 251 nM
Molecule: PbuCas13b Helical-2 domain (residues 579 - 747) (domain or fragment)
